Measurements from the supplement of paper PMC9732359.
± gives the uncertainty stated by the source.

Assay: protein stability index of a GFP-peptide fusion (yeast GPS) (PSI 1-4); higher = more stable; sorted into four equal gates, so the index is relative within each strain
Summary of the method: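 Plasmids isolated from each sorting gate were PCR-amplified and Illumina-sequenced, and barcodes assigned the reads to strains. The gates, four of equal size, were set by GFP/Cherry fluorescence ratio on mid-log cultures in leucine-free medium. These cultures were yeast carrying a pooled library of tiled 17-residue yeast protein peptides fused downstream of GFP on a plasmid that also expresses Cherry. The protein stability index is the sum of every gate's read frequency times its gate number.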

| Sequence | protein stability index (doa10∆) | protein stability index (pdr5∆) | protein stability index (san1∆) | protein stability index (ubr1∆) |
| --- | --- | --- | --- | --- |
| HPTIYESLPQYVDFVPM [POP4] | 1.72 ± 0.045 | 2 ± 0.048 | 1.81 ± 0.056 | 1.78 ± 0.051 |
| HPTTIESLREIPYGPDF [SEC65] | 3.06 ± 0.069 | 3.17 ± 0.06 | 3.01 ± 0.058 | 2.99 ± 0.049 |
| HPVSLISFAIYSALNST [RRP42] | 1.53 ± 0.051 | 1.55 ± 0.058 | 1.62 ± 0.089 | 1.84 ± 0.045 |
| HPYEYEIDHQEYSPEIL [RRP6] | 2.75 ± 0.048 | 2.69 ± 0.042 | 2.83 ± 0.059 | 2.76 ± 0.035 |
| HQQRMSRTAADILLRLC [YCG1] | 2.48 ± 0.29 | 1.63 ± 0.2 | – | 2.66 ± 0.1 |
| HRCAIRSGALIKFKKCD [SSN2] | 2.28 ± 0.096 | 2.26 ± 0.1 | 2.77 ± 0.054 | 2.49 ± 0.11 |
| HRLTLEDPVTVEYLTRY [PRE6] | 3.33 ± 0.19 | 3.64 ± 0.24 | 3.01 ± 0.19 | 2.68 ± 0.22 |
| HSDMASKMYNTDKKAFL [PRP8] | 2.91 ± 0.057 | 2.65 ± 0.056 | 2.89 ± 0.051 | 2.98 ± 0.059 |
| HSPFPFNRTKGKMVRAQ [PRP8] | 1.84 ± 0.2 | 1.16 ± 0.14 | – | 1.05 ± 0.094 |
| HSRKMNLTRGINLRKVA [RPT6] | 1.26 ± 0.075 | 1.36 ± 0.05 | 1.3 ± 0.11 | 1.2 ± 0.043 |
| HSVQETNKISPKDFSPN [SSN2] | 3.37 ± 0.094 | 2.68 ± 0.078 | 2.93 ± 0.054 | 3.11 ± 0.07 |
| HTKFEVAIGLNGKIWVK [RRP40] | 2.18 ± 0.084 | 2.48 ± 0.065 | 2.39 ± 0.072 | 2.56 ± 0.055 |
| HVKNFGFANSLTFILGQ [YML031W/NDC1] | 1.56 ± 0.12 | 1.74 ± 0.076 | 1.42 ± 0.13 | 2.27 ± 0.059 |
| HVKQCQETCDKLRARLV [SMC2] | 2.2 ± 0.18 | 2.74 ± 0.14 | 2.34 ± 0.11 | 2.21 ± 0.06 |
| HVLNKVTLASILTTAVG [RPN1] | 1.72 ± 0.14 | 1.41 ± 0.079 | 1.46 ± 0.21 | 1.31 ± 0.19 |
| HVLSRLSYISALGMMTR [RET1] | 1.35 ± 0.073 | 1.32 ± 0.053 | 1.24 ± 0.13 | 1.33 ± 0.073 |
| HVLYKESKGNAFKHKRA [RPL19A] | 2.97 ± 0.079 | 2.49 ± 0.12 | 2.59 ± 0.08 | 2.46 ± 0.044 |
| HWLQLAKGVYRPNGRKD [POP1] | 2.68 ± 0.06 | 3.12 ± 0.049 | 3.2 ± 0.034 | 3.15 ± 0.049 |
| HYGLAVDIYTHFTSPIR [DIS3] | 1.56 ± 0.042 | 1.86 ± 0.052 | 1.61 ± 0.064 | 1.84 ± 0.039 |
| HYGNEHIRRMVPLAMGI [RPN1] | 1.29 ± 0.082 | 1.33 ± 0.064 | 1.24 ± 0.091 | 1.47 ± 0.065 |
| HYGQTLGKKKNVKEEET [RPS8A] | 2.62 ± 0.035 | 2.84 ± 0.035 | 2.38 ± 0.033 | 2.879 ± 0.026 |
| HYLVLLVAKFLYPIFLL [YJR042W/NUP85] | 1.4 ± 0.035 | 1.22 ± 0.032 | 1.11 ± 0.071 | 1.13 ± 0.026 |
| IAATQDFITGSYLISHK [RPO31] | 3.03 ± 0.083 | 3.14 ± 0.085 | 2.83 ± 0.093 | 3.13 ± 0.038 |
| IACVLTVINEQQREAVR [RPL35A] | 1.73 ± 0.057 | 2.12 ± 0.068 | 2.18 ± 0.08 | 2.23 ± 0.066 |
| IAGFDLIGCIDEAKDFI [PUP3] | 3.17 ± 0.11 | 3.33 ± 0.13 | 3.08 ± 0.073 | 3.21 ± 0.055 |
| IAGINKKKGLDENTSGK [PRP28] | 3.48 ± 0.067 | 3.47 ± 0.089 | 3.44 ± 0.056 | 3.6 ± 0.075 |
| IALILAIQMVDPASFYL [SMC3] | 1.16 ± 0.05 | 1.25 ± 0.055 | 2.1 ± 0.12 | 1.98 ± 0.063 |
